Drawing on patent publication US20120100106A1, this text covers Kd for two molecules.

Ends that are not written are not given here. * marks the point of attachment. Dansyl = CN(C)c1cccc2c(S(=O)(=O)*)cccc12

Experiment [1] has as its target collagen. In words: SPR (Biacore 2000), collagen immobilised on CM-3 chip, peptide in solution 100 µM to 1.5 µM, from on-off kinetics.
Experiment [2] concerns the target collagen. In words: fluorescence plate binding assay, collagen coated on 96-well high-binding plate, equilibrium fit.

By Kd is commonly meant a measure of binding affinity in units of concentration. Higher therefore signals lower affinity. For the molecule RRANAALKAGELYKSILYGC [… (SILY) peptide], the Kd with collagen [1] amounted to 1200 nM.

In the case of Dansyl-GRRANAALKAGELYKSILYGC [Dansyl-…], the Kd in the experiment with collagen [2] is 860 nM.
